Source: patent US20250199010A1 (ALAMAR BIOSCIENCES, published 2025)
Like-named read-outs stand apart in the source and are kept apart here.

Tests used:
7D12-(GGGS)4-9G8 [1] = biological target: 7D12-(GGGS)4-9G8 (llama); assay: SPR (Biacore), 25 °C
[2] = biological target: 7D12-FAS-(AP)11-VGG-[-AA]9G8 (llama); assay: SPR, murine EGFR-Fc
[3] = biological target: 7D12-(E4K4)5-VSG-[-AA]9G8; assay: SPR, murine EGFR-Fc
[4] = biological target: 7D12-ITA-(E4K4)4-IGG-[-AA]9G8 (llama); assay: SPR, murine EGFR-Fc
7D12-(GGGS)4-9G8 [5] = biological target: 7D12-(GGGS)4-9G8 (llama); assay: SPR (Biacore), 25 °C; remark: listed apart in the source
9G8-GS-7D12 = 9G8-GS-7D12 (llama); assay: SPR (Biacore), 25 °C

Kd (7D12-(GGGS)4-9G8 [1]): 160 nM | Kd [2]: 0.6 nM | Kd [3]: 2.6 nM | Kd [4]: 0.7 nM | Kd (7D12-(GGGS)4-9G8 [5]): 160 nM | Kd (9G8-GS-7D12): 58 nM
B1: Mouse EGFR-Fc (Fc fusion, UniProt Q01279 25-647, looked up)
chain: LEEKKVCQGTSNRLTQLGTFEDHFLSLQRMYNNCEVVLGNLEITYVQRNYDLSFLKTIQEVAGYVLIALNTVERIPLENLQIIRGNALYENTYALAILSNYGTNRTGLRELPMRNLQEILIGAVRFSNNPILCNMDTIQWRDIVQNVFMSNMSMDLQSHPSSCPKCDPSCPNGSCWGGGEENCQKLTKIICAQQCSHRCRGRSPSDCCHNQCAAGCTGPRESDCLVCQKFQDEATCKDTCPPLMLYNPTTYQMDVNPEGKYSFGATCVKKCPRNYVVTDHGSCVRACGPDYYEVEEDGIRKCKKCDGPCRKVCNGIGIGEFKDTLSINATNIKHFKYCTAISGDLHILPVAFKGDSFTRTPPLDPRELEILKTVKEITGFLLIQAWPDNWTDLHAFENLEIIRGRTKQHGQFSLAVVGLNITSLGLRSLKEISDGDVIISGNRNLCYANTINWKKLFGTPNQKTKIMNNRAEKDCKAVNHVCNPLCSSEGCWGPEPRDCVSCQNVSRGRECVEKCNILEGEPREFVENSECIQCHPECLPQAMNITCTGRGPDNCIQCAHYIDGPHCVKTCPAGIMGENNTLVWKYADANNVCHLCHANCTYGCAGPGLQGCEVWPSGPKIPS
notes: also called muEGFR; murine EGFR-Fc; not shown: Fc part, not described
